Experimental data taken from the DeepSol protein solubility set.

Test: soluble on expression in E. coli; label from the status in PepcDB or PDB records

Sequence: MDEHFIKIHKWLYPVSWIYGAVVTVRNKLFDWGFLRSKSFGVPVICIGNLSVGGTGKTPHTEYLIKLLRDNYHVAVLSRGYKRHSRGYVLATPQSTARSIGDEPYQMHTKFPSVTLAVDENRCHGIEQLLSIKEPSIEVVLLDDAFQHRYVKPGLSILLTDYHRLFCDDTLLPAGRLRESVNGKNRAQIVIVTKCPQDIKPIDYNIITKRLNLYPYQQLYFSSFRYGNLQPVFPSANSEIDSTVNELPLSALTNTDILLVTGIASPAPILEELKMYTDQIDSLSFDDHHHFSHRDIQQIKERFGKLKGEHKLIVTTEKDATRLIHHPVLSEELKPFIYALPIEIEILQNQQDKFNQHIIGYVRENTRNSSFSERENAHQSLEHHHHHH
- soluble on expression in E. coli: soluble

Sequence: MGHHHHHHSHMANSAGSMANSAGSMAKTIKDIKAMVEQAAIQSIHKSSSNVKQIMVKTGQEHIVEDVYGAYDPLLYERTGQVKDAFITTNESNGVSLDNIREDDGKDIATVIETGQGYTYPDSYGYGYGNPRPFMKNTSETLRDGRLTAALKKDLKADGIKTD
- soluble on expression in E. coli: not soluble

Sequence: MGSELLDLSFLSEEEKDLILSVLQRDEEVRKADEKRIRRLKNELLEIKRKGAKRGSQHYSDRTCARCQESLGRLSPKTNTCRGCNHLVCRDCRIQESNGTWRCKVCAKEIEMKKATGDWFYDQKVNRFAYRTGSEIIRMSLRHKPAVSKR
- soluble on expression in E. coli: soluble

Sequence: MADDSVLPSPSEITSLADSSVFDSKVAEMSKENLCLASTSNVDEEMPQVEARVIMVQDAGKQEELLKALKEMKVPCVKMDSMEEFESLDSPEFENIFVVTDFQNSVFNDLYKADCRIVGPPVILNCAQRGEPLPFSCRPLYCTSMLNLVLCFTGFRKKEELVKLVTLVHHMGGVIRKECNSKVTHLVANCTQGEKFRVAVSLGTPIMKPEWIYKAWERRNEQCFCAAVDDFRNEFKVPPFQDCILSFLGFSDEEKHSMEEMTEMQGGSYLPVGDERCTHLIVEENTVKDLPFEPSKKLFVVKQEWFWGSIQMDARAGETMYLYEKANTPELKKSVSLLSLSTPNSNRKRRRLKETLAQLSRETDLSPFPPRKRPSAEHSLSIGSLLDISNTPESSIHYGETPKSCAKSSRSSTPVPPKQSARWQVAKELYQTESNYVNILATIIQLFQVPLEEEGQRGGPILAPEEIKTIFGSIPDIFDVHMKIKDDLEDLIANWDESRSIGDIFLKYAKDLVKTYPPFVNFFEMSKEMIIKCEKQKPRFHAFLKINQAKPECGRQSLVELLIRPVQRLPSVALLLNDLKKHTADENPDKSTLEKAIGSLKEVMTHINEDKRKTEAQKQIFDVVYEVDGCPANLLSSHRSLVQRVETVSLGEHPCDRGEQVTLFLFNDCLEIARKRHKVIGTFRSPHDRTRPPASLKHIHLMPLSQIKKVLDIRETEDCHNAFALLVRPPTEQANVLLSFQMTSEELPKESWLKMLCRHVANTICKADAENLMYVADPESFEVNTKDMDSTLSRASRAIKKTSKKVTRAFSFSKTPKRALRMALSSSHSSEGRSPPSSGKLAVSRLSSTSSLAGIPSPSLVSLPSFFERRSHTLSRSTTHLI
- soluble on expression in E. coli: soluble

Sequence: MGSDKIHHHHHHMRSKGVMIPRIMSTQHPDNYSIPFFASSPILGGEDEITEAFYAFSVLGADEQMWDFEGKEVDEFVVKKLLERYPTFFKENILGEDLRLTPRVPNPSVEKAEAKLLLETLQGITRAADYARVFYLDNIAPIFEVILPMTTSLAEMLRVHELYRKIVSLSGEVIYDVTVKEWIGEFYPKEINVIPLFETKVALLKSGRIIREYIGRKRPEYLRVFFARSDPAMNYGLLSAVTYVKKALEQVGEVEEETSTPIYPIIGVGSPPFRGGMRPENVKKVLKEYPSVQTYTIQSSFKYDHPTKDVVKAVEIVKSKKREAPDPLDIPEFIQLYEIEYQKQLKILAPYIRNIVTRIPDRRKRKLHIGLFGYSRNVGGLSLPRVIKFTASLYSIGLPPELLGLNELSDNQLDSISEYYKNLYDDLEFAMRFFSFKVAERVGLRELSEKVKEFKPDIDDEYVREAELVFRGQGDVMKLAQIRGFLG
- soluble on expression in E. coli: not soluble

Sequence: GSSEDKITVHFINRDGETLTTKGKIGDSLLDVVVQNNLDIDGFGACEGTLACSTCHLIFEQHIFEKLEAITDEENDMLDLAYGLTDRSRLGCQICLTKAMDNMTVRVPDAVSDARESIDMGMNSSKIE
- soluble on expression in E. coli: soluble

Sequence: MQLTAKASLTNALLISICTPDFKGDEATESLAELARLVTTLGFKVVGTQSQKQSSTKKVNVLGLGKLAEIAHLTGNQGEVEDMEEVEDLSVGEQTDDVEFMVNSSDIPSDNLPFACADVVVFDCDLSPSQLRNVENQLGVEVFDRTGIIIEIFSRHARTKTAKLQVEIARLNYVAPRLRETSCGDKERQMGKGAGETTLELNRRAVRDQLAELKRELVSVQHEMKGRRTQRSELFCVALVGYTNAGKSSMMRAITGSDVEGENKLFATLDTTVRALFPITQPRILVSDTVGFIKKLPHDLVASFHSTLAEAQDASLLLYVVDASDPSFRAQLDVVHEVLDEVGVEDSKKLLVLNKSDQLSIEQQQALMEEFPNAMMTSARNPADVSKLHKYIVGIAQEEMIEEEIIVPYTANGIIGEIRSRMSVTKEEYENSHIKLTVRSNAIDLARLKKRMLSLLEHHHHHH
- soluble on expression in E. coli: not soluble

Sequence: MSYTKEQLMLAFSYMSYYGITHTGSAKKNAELILKKMKEALKTWKPFQEDDWEVVWGPAVYTMPFTIFNDAMMYVIQKKGAEGEYVIAIRGTNPVSISDWLFNDFMVSAMKKWPYASVEGRILKISESTSYGLKTLQKLKPKSHIPGENKTILQFLNEKIGPEGKAKICVTGHSKGGALSSTLALWLKDIQGVKLSQNIDISTIPFAGPTAGNADFADYFDDCLGDQCTRIANSLDIVPYAWNTNSLKKLKSIYISEQASVKPLLYQRALIRAMIAETKGKKYKQIKAETPPLEGNINPILIEYLVQAAYQHVVGYPELMGMMDDIPLTDIFEDAIAGLLHHHHHH
- soluble on expression in E. coli: soluble

Sequence: SNAKELIQNIIEESYTDSQFTLSVLSEKLDLSSGYLSIMFKKNFGIPFQDYLLQKRMEKAKLLLLTTELKNYEIAEQVGFEDVNYFITKFKKYYQITPKQYRE
- soluble on expression in E. coli: soluble

Sequence: MGSDKIHHHHHHMQDIKDLTAVLRSNTPIVVIETYEEYRVIELLKRVAMTLYQPLFTWSVTSGLSRVDKDMGSQKFNTEPAELLGQIKSTQQQGIYVLCDFHPFVQDAPRNVRLLKEIALEYDALKHTLVLVSHAFEIPPEIRRYCAHFRLSLPSRNQLENLIVEEIDKVRRQGLPLVADESAIARLADNLRGVTFDDARRLIHKAIVDDGAITHDDVERVNQAKFRLMDMDGVLRYEYDTSSFSDIAGLHNLKEWLKARAPELSPQSSAPPPKGILLLGVQGSGKSLAAKAVAGAWQRPLLRLDMAALYNKYIGETEKNLRQALELADLMSPCVLWVDEIEKGISGSSSDEGTSQRILGTLLTWMAERKSDVFLVATANDIQALPPELMRKGRMDEIFFVDLPDEEIRKAIFLIHCKKRGVDVTSMDLGLLSRASQGFSGAEIEQAVISAIYSAASRRQPVEQAIILEELSRTRPLSVVMREKIDSLRAWAKGRTMNAHLD
- soluble on expression in E. coli: not soluble

Sequence: MGSDKIHHHHHHMRRFFKNNLRNLSQNGETNSVRRCFALADVTVVINGRTLTVPDNLTVIEACEKAGIEIPALCHHPRLGESIGACRVCVVEVEGARNLQPACVTKVRDGMVIKTSSDRVKTARKFNLALLLSEHPNDCMTCEANGRCEFQDLIYKYDVEPIFGYGTKEGLVDRSSPAIVRDLSKCIKCQRCVRACSELQGMHIYSMVERGHRTYPGTPFDMPVYETDCIGCGQCAAFCPTGAIVENSAVKVVLEELEKKEKILVVQTAPSVRVAIGEEFGYAPGTISTGQMVAALRRLGFDYVFDTNFGADLTIMEEGSEFLERLEKGDLEDLPMFTSCCPGWVNLVEKVYPELRTRLSSAKSPQGMLSAMVKTYFAEKLGVKPEDIFHVSIMPCTAKKDEALRKQLMVNGVPAVDVVLTTRELGKLIRMKKIPFANLPEEEYDAPLGISTGAAALFGVTGGVMEAALRTAYELKTGKALPKIVFEEVRGLKGVREAEIDLDGKKIRIAVVHGTANVRNLVEKILRREVKYHFVEVMACPGGCIGGGGQPYSRDPEILRKRAEAIYTIDERMTLRKSHENPAIKKLYEEYLEHPLSHKAHELLHTYYEDRSRKKRLAVK
- soluble on expression in E. coli: not soluble

Sequence: GMDRTLTHQPQEYAVSVSVGEVKLKGNLVIPNGATGIVLFAHGSGSSRYSPRNRYVAEVLQQAGLATLLIDLLTQEEEEIDLRTRHLRFDIGLLASRLVGATDWLTHNPDTQHLKVGYFGASTGGGAALVAAAERPETVQAVVSRGGRPDLAPSALPHVKAPTLLIVGGYDLPVIAMNEDALEQLQTSKRLVIIPRASHLFEEPGALTAVAQLASEWFMHYLR
- soluble on expression in E. coli: soluble

Sequence: MSTSVAENKALSASGDVNASDASVPPELLTRHPLQNRWALWYLKADRNKEWEDCLKMVSLFDTVEDFWSLYNHIQSAGGLNWGSDYYLFKEGIKPMWEDVNNVQGGRWLVVVDKQRRTQLLDHYWLELLMAIVGEQFDEYGDYICGAVVNVRQKGDKVSLWTRDATRDDVNLRIGQVLKQKLSIPDTEILRYEVHKDSSARTSSTVKPRICLPAKDPAPVKEKGPAATTSPSNPGTEATGTSPATPTP
- soluble on expression in E. coli: not soluble

Sequence: MKVIIIGGETTAYYLARSMLSRKYGVVIINKDRELCEEFAKKLKATIIHGDGSHKEILRDAEVSKNDVVVILTPRDEVNLFIAQLVMKDFGVKRVVSLVNDPGNMEIFKKMGITTVLNLTTLITNTVEALIFPDEFSSIIPLEQGIEFLSVNVEEDSPVVGKKLKDLPLPRDSIIAAIVRGGVLVVPRGDTEILSGDKLYVIVSAEAKETVEETLLGR
- soluble on expression in E. coli: soluble

Sequence: MEDIGADSDDFFSLAEELPQNEDLLESEDDAPIIKLINAMLGEAIKEGASDIHIETFEKTLSIRFRVDGVLREVLAPSRKLSSLLVSRVKVMAKLDIAEKRVPQDGRISLRIGGRAVDVRVSTMPSSHGERVVMRLLDKNATRLDLHSLGMTAHNHDNFRRLIKRPHGIILVTGPTGSGKSTTLYAGLQELNSSERNILTVEDPIEFDIDGIGQTQVNPRVDMTFARGLRAILRQDPDVVMVGEIRDLETAQIAVQASLTGHLVMSTLHTNTAVGAVTRLRDMGIEPFLISSSLLGVLAQRLVRTLCPDCKEPYEADKEQRKLFDSKKKEPLILYRATGCPKCNHKGYRGRTGIHELLLVDDALQELIHSEAGEQAMEKHIRATTPSIRDDGLDKVRQGITSLEEVMRGSRSHHHHHH
- soluble on expression in E. coli: soluble

Sequence: RENRNGDLYSLIYGTVSSEAIDPVEKKPLYHFFPGSYVYSVGTIGCNFRCKHCQNWSISQVCLEDAYTKDILPEELVERALLSDSKSIAWTYNEPTIWHEYTYESAKLAKEAGLGTIYVTNGYMTPESLKHIAPYLDAANIDIKAFNEKFYHDIASAKLAPVLEASALAKELGIHVEITTLIIPGVNDSLDELRELSKWVYKNLGPDTPLHFTRFHPQYKMQDLSPTPVKTMENACKIATEEGMKYVYMGNV
- soluble on expression in E. coli: not soluble

Sequence: MATYRQRGKKKLWDYRIFNEKSELVASGSGFKTKREAMNEAMRIEQQKLLVNSISSDITLYDLWFEWYSLIIKPSNLAETTKNKYFTRGSVIRKLFGNQKVNKIKHSAYQRKLNTYAEKYTKNHVRRLNSDIKKAIQFAKRDGVLLSDFTDGVVIAGRKFVKDADDKYLHSIFDYKKVISYLENNLDYSNSIVYYLLLVLFKTGLRVGEALALTWDDVNFEDLEIKTYRRFSGDKGTFSPPKTKTSIRTIPISQSLALILRDLKDDQQVMLKNLKIVNMNNQIFYDYRYGVSTNSAINKSLKNVLKILNINSKMTATGARHTYGSYLLAKGVDIWVVARLMGHKDITQLLETYGHVLTEVINKEYETVRSLVS
- soluble on expression in E. coli: not soluble

Sequence: MQDEESLMWVQFGGDDGKQVVAELAMRADKYAVRTRDNSSPVLTGFEGVPTYAYSPAWVIEGRFEPYAEPMDVPIGTANPLVDGVHRSVGEVVFRAPGVPHEIRLHAEEEKLGALNVTFHDETNGDTTDEWRKVFIPRPRPDGSVVIDFNRAINYPSAFTPYGTCPMPVRGNSVDVRVEAGEKLPQGLEHHHHHH
- soluble on expression in E. coli: soluble
